# Results from patent publication US20250361296A1 (BIOCYTOGEN PHARMACEUTICALS BEIJING, published 2025).
# T1: hSIGLEC15 protein captured in the epitope analysis of Example 4 (human, UniProt Q6ZMC9 20-263, limits assumed)
# T1 sequence: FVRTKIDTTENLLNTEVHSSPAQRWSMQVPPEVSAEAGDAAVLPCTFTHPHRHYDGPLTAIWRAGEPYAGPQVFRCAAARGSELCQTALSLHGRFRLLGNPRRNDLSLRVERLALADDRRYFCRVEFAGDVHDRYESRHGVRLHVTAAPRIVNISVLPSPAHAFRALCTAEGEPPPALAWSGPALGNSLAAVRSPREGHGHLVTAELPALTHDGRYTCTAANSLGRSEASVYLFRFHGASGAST
# T2: dog SIGLEC15 on CHO-S-dSIGLEC15 cells (dog)
# T2 chain: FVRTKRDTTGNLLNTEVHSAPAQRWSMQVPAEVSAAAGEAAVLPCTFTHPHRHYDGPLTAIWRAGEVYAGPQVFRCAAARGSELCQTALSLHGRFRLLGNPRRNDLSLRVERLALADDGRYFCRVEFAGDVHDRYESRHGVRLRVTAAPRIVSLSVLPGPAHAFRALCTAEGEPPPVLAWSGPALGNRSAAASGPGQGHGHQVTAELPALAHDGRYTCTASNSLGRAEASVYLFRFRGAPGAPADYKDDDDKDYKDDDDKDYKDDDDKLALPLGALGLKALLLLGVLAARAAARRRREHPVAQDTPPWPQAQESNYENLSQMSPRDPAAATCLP
# T3: mouse SIGLEC15 on CHO-S-mSIGLEC15 cells (mouse)
# T3 chain: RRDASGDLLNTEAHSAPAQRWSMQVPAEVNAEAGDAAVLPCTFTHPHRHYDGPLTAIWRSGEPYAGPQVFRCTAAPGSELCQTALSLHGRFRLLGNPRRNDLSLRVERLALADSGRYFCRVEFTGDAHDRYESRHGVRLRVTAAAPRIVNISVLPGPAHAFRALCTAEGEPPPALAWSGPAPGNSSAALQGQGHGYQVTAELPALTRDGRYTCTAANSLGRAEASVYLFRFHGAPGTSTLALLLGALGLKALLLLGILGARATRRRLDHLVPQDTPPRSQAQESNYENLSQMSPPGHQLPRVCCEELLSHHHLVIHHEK
# T4: human SIGLEC15 on CHO-S-hSIGLEC15 cells (human, UniProt Q6ZMC9 20-328)
# T4 sequence: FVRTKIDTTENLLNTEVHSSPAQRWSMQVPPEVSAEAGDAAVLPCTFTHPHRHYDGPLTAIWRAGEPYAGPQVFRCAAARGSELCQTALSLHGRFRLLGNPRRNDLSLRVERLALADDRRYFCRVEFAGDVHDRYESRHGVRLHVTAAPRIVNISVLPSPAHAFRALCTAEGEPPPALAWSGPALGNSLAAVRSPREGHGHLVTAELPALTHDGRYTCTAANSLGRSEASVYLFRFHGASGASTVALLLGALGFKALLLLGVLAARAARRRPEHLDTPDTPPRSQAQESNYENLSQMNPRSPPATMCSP
# How the values were obtained:
# [1] = molecular target: T1, hSIGLEC15 protein captured in the …; assay: BLI pairwise binning on captured hSIGLEC15, 200 nM each antibody; competitor 5G12
# Protocol: (§1) Relative positions of target protein epitope between a pair of purified anti-SIGLEC15 antibodies were analyzed by Biolayer Interferometry (BLI) using ForteBio Octet system at 30° C. A total of 4 purified antibodies were used: 5G12, 10A7, 10C9 and 23F4.
# (§2) 1×HBS-EP+ buffer (10 mM 4-(2-hydroxyethyl)-1-piperazineethanesulfonic acid (HEPES), 150 mM NaCl, 3 mM ethylenediaminetetraacetic acid (EDTA) and 0.05% P20, pH7.4) diluted from HBS-EP+ buffer (10×) was used as the running buffer throughout the experiment. About 100 RU of hSIGLEC15 protein was captured at a flow rate of 10 μL/min, and 200 nM of antibody was injected at a flow rate of 30 μL/min to bind the ligand. Another antibody was injected under the same conditions to determine whether the binding of different antibodies interfered with each other. The binding time was 300 s for each antibody.
# (§3) The binding value of each antibody was obtained using Data Analysis HT 12.0. To quantify the interference of one antibody binding to another, a binding ratio was calculated to compare each pair of antibodies. The binding ratio is defined as the binding value of the second antibody (analyte 2), divided by the binding value of the first antibody (analyte 1). […] In general, antibody pairs that interfere with each other have the same or overlapping epitopes.
# [2] = molecular target: T1, hSIGLEC15 protein captured in the …; assay: BLI pairwise binning on captured hSIGLEC15, 200 nM each antibody; competitor 10A7
# Protocol: as §1, §2, §3
# [3] = molecular target: T1, hSIGLEC15 protein captured in the …; assay: BLI pairwise binning on captured hSIGLEC15, 200 nM each antibody; competitor 10C9
# Protocol: as §1, §2, §3
# [4] = molecular target: T2, dog SIGLEC15 on CHO-S-dSIGLEC15 cells; assay: flow cytometry, CHO-S cells expressing the target
# Protocol: (§4) CHO-S-hSIGLEC15 cells, CHO-S-mSIGLEC15 cells, CHO-S-fasSIGLEC15 cells or CHO-S-dSIGLEC15 cells were transferred to a 96-well plate at a density of 5×10⁴ cells/well respectively. Serially diluted sample anti-SIGLEC15 antibodies were added to the 96-well plate, and incubated at 4° C. for 30 min. Then, the cells were incubated with the secondary antibody anti-hIgG-Fc-Alex Flour 647 (RL1-H) (Jackson ImmunoResearch Laboratories, Inc., 109-606-170) at 4° C. in the dark for 15 minutes before flow cytometry analysis.
# [5] = molecular target: T3, mouse SIGLEC15 on CHO-S-mSIGLEC15 cells; assay: flow cytometry, CHO-S cells expressing the target
# Protocol: as §4
# [6] = molecular target: T4, human SIGLEC15 on CHO-S-hSIGLEC15 cells; assay: flow cytometry, CHO-S cells expressing the target
# Protocol: as §4
# [7] = molecular target: T1, hSIGLEC15 protein captured in the …; assay: BLI pairwise binning on captured hSIGLEC15, 200 nM each antibody; competitor 23F4
# Protocol: as §1, §2, §3
binding ratio [1],binding ratio [2],binding ratio [3],Percentage of Positive Cells [4] [%],Percentage of Positive Cells [5] [%],Percentage of Positive Cells [6] [%],binding ratio [7],Binder
0.2,0.14,0.16,22.8,38.5,17.9,0.43,"anti-SIGLEC15 antibody 10A7 (antibody, human IgG1, V domains shown) VH: EVQLVQSGGGLVQPGGSLRLSCAASGFTFSNYEMNWVRQAPGKGLEWISYISNSGSTIYYADSVKGRFTISRDDAKNSLYLQMNSLRAEDTAVYYCAREDYDSSGYYWFDPWGQGTPVTVSS VL: DIQLTQSPSSVSASVGDRVTITCRASQGISSWLAWYQQKPGKAPKLLIYAASSLQSGVPSRFSGSGSGTDFTLTINSLQPEDFATYYCQQTNSFPLTFGGGTKVEIK"
0.48,0.18,0.62,24.6,40.5,25.6,0.07,"anti-SIGLEC15 antibody 23F4 (antibody, human IgG1, V domains shown) VH: QVQLQQWGAGLLKPSETLSLTCAVYGGSFSGYFWSWIRQPPGKGLEWIGEINHSGSTNYNPSLKSRVTLSVDTSKNQFSLKLSSVTAADTAVYYCAREGDSSSWGNWFDPWGQGTLVTVSS VL: EIVLTQSPGTLSLSPGERATLSCRASQSVSSSYLAWYQQKPGQAPRFLIYGASSRATGIPDRFSGSGSGTDFTLTISRLEPEDFAVYYCQQFGNSPLTFGGGTKVEIK"
0.23,0.11,0.11,37.3,29.3,16.3,0.72,"anti-SIGLEC15 antibody 10C9 (antibody, human IgG1, V domains shown) VH: QVQLVQSGAEVKKPGATVKVSCKASGYTFTNYGFSWVRQAPGQGLEWMGWINTYNDNTNYAQKFQGRVTMTTDTSTSTAYMELRSLRSDDTAVYYCARDGLWFGELPHYFDYWGQGTLVTVSS VL: DIQLTQSPLSSPVTLGQPASISCRSSQSLVNSDGETFLSWLQQRPGQPPRLLIYKISNRFSGVPDRFSGSGAGTDFTLKISRVEAEDVGVYYCMQATQFPHTFGQGTKLEIK"
